Laboratory results published in article PMC7261172 (2020).

Biological target: E. coli β-clamp labelled with RED-maleimide dye (MST) (E. coli, UniProt P0A988 1-366, RED-maleimide fluorescent dye (RED-Maleimide Labelling Kit, NanoTemper); site not stated)
Assay: MST

## Ac-MDRFSLKWKKKRKIRRRRRRRRRRR-NH2 (also: TFA salt) [Cell penetrating APIM-peptide RFSLK (Ac-MD-RFSLK-WKKKRKI-RRRRRRRRRRR)]
  Kd: 19 µM

## Ac-MDRWLVKWKKKRKIRRRRRRRRRRR-NH2 (also: TFA salt) [Cell penetrating APIM-peptide RWLVK (Ac-MD-RWLVK-WKKKRKI-RRRRRRRRRRR)]
  Kd: 35 µM
